Experimental data reported in patent US20140274782A1, “AFFINITY REAGENTS AND METHODS FOR DETECTION, PURIFICATION, AND PROTEOMIC ANALYSIS OF METHYLATED PROTEINS” (The Board of Trustees of the Leland Stanford Junior …, priority 2013, published 2014).

T1: G9a and GLP (Homo sapiens, UniProt Q96KQ7+Q9H9B1)
T1 sequence (Q96KQ7 2-1210 limits assumed): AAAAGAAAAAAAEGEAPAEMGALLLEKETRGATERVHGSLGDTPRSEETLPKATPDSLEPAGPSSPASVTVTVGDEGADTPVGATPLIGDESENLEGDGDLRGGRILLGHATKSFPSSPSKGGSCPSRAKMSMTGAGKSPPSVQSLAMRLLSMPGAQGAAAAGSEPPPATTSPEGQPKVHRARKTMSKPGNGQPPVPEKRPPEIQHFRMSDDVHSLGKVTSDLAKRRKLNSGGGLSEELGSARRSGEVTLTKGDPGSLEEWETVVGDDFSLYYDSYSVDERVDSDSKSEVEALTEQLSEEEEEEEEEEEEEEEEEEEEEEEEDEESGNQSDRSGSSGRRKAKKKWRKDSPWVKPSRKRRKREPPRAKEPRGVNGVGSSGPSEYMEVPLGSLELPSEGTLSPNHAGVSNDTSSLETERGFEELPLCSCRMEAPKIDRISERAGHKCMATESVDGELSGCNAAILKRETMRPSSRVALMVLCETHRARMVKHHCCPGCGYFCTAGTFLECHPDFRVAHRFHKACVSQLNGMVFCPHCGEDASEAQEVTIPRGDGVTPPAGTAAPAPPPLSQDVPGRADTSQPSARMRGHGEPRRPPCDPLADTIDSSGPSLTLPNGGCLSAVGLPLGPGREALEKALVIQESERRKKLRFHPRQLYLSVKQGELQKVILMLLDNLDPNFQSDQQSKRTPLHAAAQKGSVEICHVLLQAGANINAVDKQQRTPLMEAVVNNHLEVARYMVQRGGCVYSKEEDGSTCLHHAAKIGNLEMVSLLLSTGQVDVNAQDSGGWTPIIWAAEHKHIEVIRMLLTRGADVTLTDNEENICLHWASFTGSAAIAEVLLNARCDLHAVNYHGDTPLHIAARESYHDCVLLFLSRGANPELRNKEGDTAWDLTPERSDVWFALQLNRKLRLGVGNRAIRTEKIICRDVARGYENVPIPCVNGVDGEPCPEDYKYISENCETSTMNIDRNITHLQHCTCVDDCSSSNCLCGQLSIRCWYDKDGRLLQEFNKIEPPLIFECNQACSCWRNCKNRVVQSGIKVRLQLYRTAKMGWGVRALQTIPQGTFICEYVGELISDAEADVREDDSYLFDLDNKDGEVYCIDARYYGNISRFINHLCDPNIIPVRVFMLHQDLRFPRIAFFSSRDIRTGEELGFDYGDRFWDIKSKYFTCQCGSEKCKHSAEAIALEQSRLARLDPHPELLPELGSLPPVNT
T1 sequence (Q9H9B1 2-1298 limits assumed): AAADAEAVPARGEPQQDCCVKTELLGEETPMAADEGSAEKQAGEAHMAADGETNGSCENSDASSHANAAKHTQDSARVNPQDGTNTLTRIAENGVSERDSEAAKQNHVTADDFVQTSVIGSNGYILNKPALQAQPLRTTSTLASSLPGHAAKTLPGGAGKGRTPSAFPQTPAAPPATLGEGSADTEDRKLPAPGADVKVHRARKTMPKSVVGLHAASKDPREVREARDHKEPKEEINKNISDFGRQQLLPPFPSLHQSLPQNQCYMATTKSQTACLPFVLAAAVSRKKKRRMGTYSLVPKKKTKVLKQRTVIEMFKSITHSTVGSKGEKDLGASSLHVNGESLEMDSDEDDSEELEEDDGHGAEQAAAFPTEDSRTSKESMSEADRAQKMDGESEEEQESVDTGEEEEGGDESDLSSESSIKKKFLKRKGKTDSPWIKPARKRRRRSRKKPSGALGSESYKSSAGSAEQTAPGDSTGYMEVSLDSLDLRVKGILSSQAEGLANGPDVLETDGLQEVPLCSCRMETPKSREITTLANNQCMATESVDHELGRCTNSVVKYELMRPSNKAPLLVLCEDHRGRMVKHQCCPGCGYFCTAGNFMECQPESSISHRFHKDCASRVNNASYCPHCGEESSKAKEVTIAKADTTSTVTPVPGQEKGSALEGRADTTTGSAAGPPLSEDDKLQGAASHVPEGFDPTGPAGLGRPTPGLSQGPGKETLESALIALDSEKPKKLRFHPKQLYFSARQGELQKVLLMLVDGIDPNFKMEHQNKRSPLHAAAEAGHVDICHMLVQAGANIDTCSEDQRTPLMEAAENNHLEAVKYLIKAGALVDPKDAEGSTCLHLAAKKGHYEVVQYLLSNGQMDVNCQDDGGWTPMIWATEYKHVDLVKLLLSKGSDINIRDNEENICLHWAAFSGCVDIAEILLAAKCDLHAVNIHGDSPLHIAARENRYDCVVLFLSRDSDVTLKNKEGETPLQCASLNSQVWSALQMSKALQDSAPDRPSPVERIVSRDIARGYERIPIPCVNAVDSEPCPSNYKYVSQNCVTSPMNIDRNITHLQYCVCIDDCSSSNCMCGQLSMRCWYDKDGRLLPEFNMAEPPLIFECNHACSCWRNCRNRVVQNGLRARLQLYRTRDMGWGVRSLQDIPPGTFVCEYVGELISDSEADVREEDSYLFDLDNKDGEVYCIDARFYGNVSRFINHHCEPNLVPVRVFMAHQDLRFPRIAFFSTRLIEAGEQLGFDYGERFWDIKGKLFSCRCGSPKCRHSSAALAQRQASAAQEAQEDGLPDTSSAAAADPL

B1: MATR3 (protein, UniProt P43243 2-847, looked up)
Matrin-3: SKSFQQSSLSRDSQGHGRDLSAAGIGLLAAATQSLSMPASLGRMNQGTARLASLMNLGMSSSLNQQGAHSALSSASTSSHNLQSIFNIGSRGPLPLSSQHRGDADQASNILASFGLSARDLDELSRYPEDKITPENLPQILLQLKRRRTEEGPTLSYGRDGRSATREPPYRVPRDDWEEKRHFRRDSFDDRGPSLNPVLDYDHGSRSQESGYYDRMDYEDDRLRDGERCRDDSFFGETSHNYHKFDSEYERMGRGPGPLQERSLFEKKRGAPPSSNIEDFHGLLPKGYPHLCSICDLPVHSNKEWSQHINGASHSRRCQLLLEIYPEWNPDNDTGHTMGDPFMLQQSTNPAPGILGPPPPSFHLGGPAVGPRGNLGAGNGNLQGPRHMQKGRVETSRVVHIMDFQRGKNLRYQLLQLVEPFGVISNHLILNKINEAFIEMATTEDAQAAVDYYTTTPALVFGKPVRVHLSQKYKRIKKPEGKPDQKFDQKQELGRVIHLSNLPHSGYSDSAVLKLAEPYGKIKNYILMRMKSQAFIEMETREDAMAMVDHCLKKALWFQGRCVKVDLSEKYKKLVLRIPNRGIDLLKKDKSRKRSYSPDGKESPSDKKSKTDGSQKTESSTEGKEQEEKSGEDGEKDTKDDQTEQEPNMLLESEDELLVDEEEAAALLESGSSVGDETDLANLGDVASDGKKEPSDKAVKKDGSASAAAKKKLKKVDKIEELDQENEAALENGIKNEENTEPGAESSENADDPNKDTSENADGQSDENKDDYTIPDEYRIGPYQPNVPVGIDYVIPKTGFYCKLCSLFYTNEEVAKNTHCSSLPHYQKLKKFLNKLAEERRQKKET
B2: XRN2 (protein, UniProt Q9H0D6 1-950, looked up)
5'-3' exoribonuclease 2: MGVPAFFRWLSRKYPSIIVNCVEEKPKECNGVKIPVDASKPNPNDVEFDNLYLDMNGIIHPCTHPEDKPAPKNEDEMMVAIFEYIDRLFSIVRPRRLLYMAIDGVAPRAKMNQQRSRRFRASKEGMEAAVEKQRVREEILAKGGFLPPEEIKERFDSNCITPGTEFMDNLAKCLRYYIADRLNNDPGWKNLTVILSDASAPGEGEHKIMDYIRRQRAQPNHDPNTHHCLCGADADLIMLGLATHEPNFTIIREEFKPNKPKPCGLCNQFGHEVKDCEGLPREKKGKHDELADSLPCAEGEFIFLRLNVLREYLERELTMASLPFTFDVERSIDDWVFMCFFVGNDFLPHLPSLEIRENAIDRLVNIYKNVVHKTGGYLTESGYVNLQRVQMIMLAVGEVEDSIFKKRKDDEDSFRRRQKEKRKRMKRDQPAFTPSGILTPHALGSRNSPGSQVASNPRQAAYEMRMQNNSSPSISPNTSFTSDGSPSPLGGIKRKAEDSDSEPEPEDNVRLWEAGWKQRYYKNKFDVDAADEKFRRKVVQSYVEGLCWVLRYYYQGCASWKWYYPFHYAPFASDFEGIADMPSDFEKGTKPFKPLEQLMGVFPAASGNFLPPSWRKLMSDPDSSIIDFYPEDFAIDLNGKKYAWQGVALLPFVDERRLRAALEEVYPDLTPEETRRNSLGGDVLFVGKHHPLHDFILELYQTGSTEPVEVPPELCHGIQGKFSLDEEAILPDQIVCSPVPMLRDLTQNTVVSINFKDPQFAEDYIFKAVMLPGARKPAAVLKPSDWEKSSNGRQWKPQLGFNRDRRPVHLDQAAFRTLGHVMPRGSGTGIYSNAAPPPVTYQGNLYRPLLRGQAQIPKLMSNMRPQDSWRGPPPLFQQQRFDRGVGAEPLLPWNRMLQTQNAAFQPNQYQMLAGPGGYPPRRDDRGGRQGYPREGRKYPLPPPSGRYNWN

Experiments:
[1] = biological target: T1, G9a and GLP; test: Triple SILAC pull-down after UNC0638 treatment of 293T cells, DMSO/UNC0638 ratio of protein captured by 3×MBT; type: cell-based; design: endogenous in cells; host or cells: HEK 293T; settings: for Relative to UNC0638 UNC Heavy / Relative to UNC0638 UNC Light: SILAC ratio DMSO/UNC0638 of protein pulled down with 3xMBT; for Relative to UNC0638 UNC Heavy: UNC0638 in heavy SILAC media; for Relative to UNC0638 UNC Light: UNC0638 in light SILAC media; for Relative to UNC0638 Average: average of UNC Light and UNC Heavy experiments;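 as to all read-outs here: mass spectrometry (Q-Exactive) SILAC quantitation, DMSO/UNC0638 ratio computed after subtracting 3×MBTD355N mutant pull-down background, only proteins with at least twofold 3×MBT over mutant signal considered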
[2] = tested on: 3×MBT domain of L3MBTL1; test: Triple SILAC pull-down, 3xMBT/3xMBTD355N ratio (cytoplasmic, nuclear and chromatin fractions of 293T cells); type: binding, human; settings: SILAC ratio, pull-down 3xMBT vs 3xMBTD355N; for 3xMBT/D355N UNC Heavy: experiment with UNC0638 in heavy SILAC media; for 3xMBT/D355N UNC Light: experiment with UNC0638 in light SILAC media;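 as to all read-outs here: proteins quantified with MaxQuant, requiring at least two unique peptides and quantification in both label directions, normalized to the mean of proteins from a digested loading control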

Molecule | Relative to UNC0638 UNC Heavy [1] | Relative to UNC0638 UNC Light [1] | Relative to UNC0638 Average [1] | 3xMBT/D355N UNC Heavy [2] | 3xMBT/D355N UNC Light [2]
B1 | 0.37 log base 2 | 0.14 log base 2 | 0.26 log base 2 | 1.72 log base 2 | 1.77 log base 2
B2 | 0.34 log base 2 | 0.18 log base 2 | 0.26 log base 2 | 2.19 log base 2 | 2.76 log base 2
